Measurements from article doi:10.1101/2020.11.18.389114.
Where no end group is shown, it is not given here. [ ]: non-standard residue; d: D form. The star is where a group is joined. FITC = O=C1OC2(c3ccc(O)cc3Oc3cc(O)ccc32)c2ccc(NC(=S)*)cc21; pT = C[C@@H](OP(=O)(O)O)[C@H](N)C(=O)O; pS = N[C@@H](COP(=O)(O)O)C(=O)O; Aβ = not defined here

The binders below were run against MpIBP_RIII1-4 (Marinomonas primoryensis ice-binding protein, Region III domains 1-4), truncated construct ending at N507 (Marinomonas primoryensis) (assay: fluorescence polarisation).
Binder {FITC}-AGAGD [FITC-AGAGD] has an EC50 of 1500 nM. Work on {FITC}-AGAPD [FITC-AGAPD] yielded an EC50 of 4600 nM. {FITC}-AGATD [FITC-AGATD] was tested, and the EC50 was 89 nM. {FITC}-AGAFD [FITC-AGAFD] showed an EC50 of 180 nM. For {FITC}-AGAYD [FITC-AGAYD], the EC50 was 170 nM. {FITC}-AGASD [FITC-AGASD] was tested, and the EC50 was 310 nM.

Target: MpIBP_RIII1-4 (Marinomonas primoryensis ice-binding protein, Region III domains 1-4), truncated construct ending at N507 (Marinomonas primoryensis)
Assay: fluorescence polarisation
Remark: another data set of the same source
In the case of {FITC-Aβ}-GPDSN (reading uncertain; also: printed as FITC-AβGPDSN) [FITC-AβGPDSN], the EC50 is reported as 270 nM. {FITC}-AGAGD [FITC-AGAGD] gave an EC50 of 3200 nM. For {FITC}-AGAGI [FITC-AGAGI], the EC50 was 4400 nM. In the case of {FITC}-AGAGY [FITC-AGAGY], the EC50 is reported as 4600 nM. Work on {FITC}-AGAGF [FITC-AGAGF] yielded an EC50 of 7200 nM. {FITC}-AGATD [FITC-AGATD] gave an EC50 of 72 nM. In the case of {FITC}-IKARAS[pS]SPVILVGTHLD-OH [FITC-IKARAS(pS)…], the EC50 is reported as 2700 nM. {FITC}-AGYTD [FITC-AGYTD] gave an EC50 of 29 nM. {FITC}-RHKKLMFK[pT]EGPDSD-OH [FITC-RHKKLMFK(pT)EGPDSD] showed an EC50 of 690 nM. Work on {FITC}-AGWTD [FITC-AGWTD] yielded an EC50 of 23 nM. {FITC}-AGCTD [FITC-AGCTD] showed an EC50 of 23 nM. For {FITC}-AGYTS [FITC-AGYTS], the EC50 was 30 nM. {FITC-Aβ}-DSTPD (reading uncertain; also: printed as FITC-AβDSTPD) [FITC-AβDSTPD] was tested, and the EC50 was 27000 nM and the affinity was 26 µM. With {FITC-Aβ}-DSTD (reading uncertain; also: printed as FITC-AβDSTD) [FITC-AβDSTD] the EC50 was 110 nM. Binder {FITC-Aβ}-GPDSD (reading uncertain; also: printed as FITC-AβGPDSD) [FITC-AβGPDSD] has an EC50 of 160 nM. In the case of {FITC-Aβ}-GPDD (reading uncertain; also: printed as FITC-AβGPDD) [FITC-AβGPDD], the fold by which FITC-AβGPDSD binds stronger than FITC-AβGPDD is reported as 20 fold.

Each binder was assayed against MpIBP_RIII1-4 (Marinomonas primoryensis ice-binding protein, Region III domains 1-4), truncated construct ending at N507 (Marinomonas primoryensis) (assay: ITC).
Work on AGAGD [AGAGD (unlabelled peptide)] yielded a Kd of 1900 nM and a stoichiometry N of 1. Binder AGATD [AGATD (unlabelled peptide)] has a Kd of 86 nM and a stoichiometry N of 1. AGYTD [AGYTD (unlabelled peptide)] gave a Kd of 67 nM and a stoichiometry N of 1. AGYTS [AGYTS (unlabelled peptide)] showed a Kd of 59 nM and a stoichiometry N of 1.
